According to US20260263521A1, “ANTI-CD200R1 ANTIBODY AND USE THEREOF” (AIMED BIO INC., priority 2023, published 2026):

Columns and labels:
[1] = system: monkey CD200R1; assay: ELISA binding to monkey CD200R1; conditions: Example 14
Excerpt: Therefore, the LC D51 and LC D92 sequences were not substituted during the optimization process. However, since LC N30 and LC N31 can play an important role in the specific binding of antibodies as paratopes, the sequences were substituted and optimized. Through rational design, LC S52 and LC S94 were substituted with K and R, respectively, to derive P001009v1, and LC S52 and LC D93 were substituted with K and R, respectively, to derive P001009v2. Further, P001009v3, in which LC N30 was substituted with S, and P001009v4, in which LC N31 was substituted with K, were derived and produced, and the binding ability to human, mouse, and monkey CD200R1 was analyzed by ELISA (FIG. 15). […] Both […] and variants thereof had very weak binding ability to mouse CD200R1 at concentrations up to 300 nM.

[2] = target: T1, CD200R1 on U937-CD200R overexpressing cells (Homo sapiens, UniProt Q8TD46); assay: Cell binding assay (flow cytometry), U937-CD200R1 cells; format: cell-based; conditions: serial dilution from 100 nM
T1 construct: host or cells: U937 (CRL-1593.2)
T1 sequence (Q8TD46 25-348): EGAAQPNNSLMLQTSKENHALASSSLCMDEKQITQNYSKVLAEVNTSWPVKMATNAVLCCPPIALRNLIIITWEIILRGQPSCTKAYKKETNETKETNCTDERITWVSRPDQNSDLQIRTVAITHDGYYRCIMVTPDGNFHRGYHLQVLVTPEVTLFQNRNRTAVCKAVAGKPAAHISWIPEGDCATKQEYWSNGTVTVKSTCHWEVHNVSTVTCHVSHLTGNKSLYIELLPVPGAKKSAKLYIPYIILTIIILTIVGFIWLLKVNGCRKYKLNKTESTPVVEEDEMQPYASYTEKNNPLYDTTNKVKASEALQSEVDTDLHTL
Protocol: Binding ability was determined in HH, an endogenous T cell line with high CD200R1 expression, and two additional overexpressing cell lines: U937-CD200R overexpressing cells, generated by intranuclear injection of human CD200R1 CDNA into the monocytic cell line U937 (CRL-1593.2) (Source: UMC Utrecht, the Netherlands) and Jurkat-CD200R overexpressing cells, were also cells engineered using a similar method.
All cell lines were maintained in RPMI 1640 medium supplemented with 10% heat-inactivated FBS and 1% penicillin/streptomycin (P/S) and cell binding was determined in the same manner as in Example 12. Two additional wells were treated with 10 μl of mouse IgG1K (BD, #555751) and 5 μl of commercial CD200R1 antibody (Biolegend, #329308) to determine CD200R1 expression on the cell line surface for cell quality control.
Specific binding ability was determined using P001009 WT and antibody-optimized mutants, P001009v1, P001009v2, P001009v3, and P001009v4. The antibodies were serially diluted 10-fold from a maximum concentration of 100 nM to 10 nM, 1 nM, […], and were added to the pre-seeded cells. […] Using GraphPad Prism software, the EC50 was determined using a nonlinear graph model of log (agonist) vs. response-variable slope, as shown in Table 32.

[3] = system: Th1/Th2 cytokines in nasal polyp patient specimens; assay: Ex vivo cytokine inhibition in nasal polyp patient specimens (CBA); format: cell-based, human; conditions: antibody drugs 100 nM; three DUPIXENT-resistant samples of 10; Th2 cytokines IL-5, IL-4
Protocol: The specimens were finely chopped and minced, and then additionally processed twice using the m_lung_02 protocol on a gentleMACS (Miltenyi Biotec) to obtain tissue fragments. After centrifugation at 1500 rpm for 3 minutes to ensure that all tissues formed a pellet, RPMI media+10% FBS was aliquoted in the pellet at a 1:3 ratio. The pellet was thoroughly mixed with the medium and dispensed into a 96-well u-bottom plate, 100 μl per well, in triplicate for each drug. To establish the screening assay, results were obtained first using dexamethasone (a steroid-based positive control drug), followed by treatment with the anti-CD200R1 antibody (P001009v1) and other drugs used for the corresponding disease. All antibody-based drugs were treated at 100 nM, while steroid drugs such as dexamethasone were treated at 20 μM.
After drug treatment, the cells were incubated at 37° C. for 1 hour. To increase overall cytokine levels, 4 μl of a 10-fold diluted cell stimulation cocktail 500× (Invitrogen #00-4970-03) was added on each well and mixed. After reaction for 24 hours at 37° C., the supernatant was collected by centrifugation. Using the human Th1/Th2 cytokine cytometric bead array (CBA) kit (BD, #550749), cytokine levels in the supernatant were measured and the degree of drug responsiveness of each sample was determined.

[4] = system: contact dermatitis animal model; assay: Contact dermatitis animal model (oxazolone); format: in vivo, C57BL/6 mice; conditions: 20 mg/kg intravenously
Protocol: An in vivo contact dermatitis animal model was established to evaluate the anti-inflammatory efficacy of the anti-CD200R1 antibody. Ten-week-old female C57BL/6 mice were used for the contact dermatitis model. The animals were anesthetized and the abdominal hair thereof was removed. The following day, the shaved abdominal area was sensitized with 100 μL of 3% oxazolone in ethanol. Seven days after sensitization, P001009v1 was administered intravenously at a dose of 20 mg/kg. Four hours later, the thickness of both ears was measured. Then, both ears were sensitized with 2% oxazolone in 10 μL of ethanol. The thickness of both ears was measured again at 24 and 48 hours, and changes in ear edema thickness were recorded. Statistical analysis was performed using one-way ANOVA.

- binding ability to monkey CD200R1 compared to parent [1]: improved
B1: P001009v1: P001009 variant, LC S52 and LC S94 substituted with K and R; VH SEQ ID NO: 79 (antibody, V domains shown)
VH: EVQLLESGGGLVQPGGSLRLSCAASGFTFSSYDMSWVRQAPGKGLEWVSWISHGGGSIYYADSVKGRFTISRDNSKNTLYLQMNSLRAEDTAVYYCARDAPAYSAPLFDYWGQGTLVTVSS
VL: QSVLTQPPSASGTPGQRVTISCSGSSSNIGNNAVNWYQQLPGTAPKLLIYYDKNRPSGVPDRFSGSKSGTSASLAISGLRSEDEADYYCAAWDDRLSGYVFGGGTKLTVL
- binding ability to U937-CD200R1 [2]: exhibited binding ability
- cytokine suppression in nasal polyp patient samples [3]: superior cytokine suppression
- anti-inflammatory efficacy after 48 hours ([4]; 48 hours): maintained
- anti-inflammatory response (ear edema thickness) ([4]; compared to control group): significant anti-inflammatory response
